Molecular target: purified recombinant 6x His-PCNA
Sequence (chain, as listed by the source): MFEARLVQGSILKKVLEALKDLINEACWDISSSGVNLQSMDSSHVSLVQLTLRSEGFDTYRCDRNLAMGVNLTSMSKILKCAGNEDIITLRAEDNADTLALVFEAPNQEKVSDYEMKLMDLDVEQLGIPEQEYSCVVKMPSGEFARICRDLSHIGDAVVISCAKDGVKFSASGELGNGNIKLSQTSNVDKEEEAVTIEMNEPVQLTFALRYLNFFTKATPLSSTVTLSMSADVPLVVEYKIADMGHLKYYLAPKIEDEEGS

B1: Flag-tagged C6orf211 protein fusion (Flag-Arm1) (protein)
chain: MAVVPASLSGQDVGSFAYLTIKDRIPQILTKVIDTLHRHKSEFFEKHGEEGVEAEKKAISLLSKLRNELQTDKPFIPLVEKFVDTDIWNQYLEYQQSLLNESDGKSRWFYSPWLLVECYMYRRIHEAIIQSPPIDYFDVFKESKEQNFYGSQESIIALCTHLQQLIRTIEDLDENQLKDEFFKLLQISLWGNKCDLSLSGGESSSQNTNVLNSLEDLKPFILLNDMEHLWSLLSNCKKTREKASATRVYIVLDNSGFELVTDLILADFLLSSELATEVHFYGKTIPWFVSDTTIHDFNWLIEQVKHSNHKWMSKCGADWEEYIKMGKWVYHNHIFWTLPHEYCAMPQVAPDLYAELQKAHLILFKGDLNYRKLTGDRKWEFSVPFHQALNGFHPAPLCTIRTLKAEIQVGLQPGQGEQLLASEPSWWTTGKYGIFQYDGPL
PCNA-dependent carboxyl methyltransferase activity (vapor diffusion assay): Significant levels of PCNA-dependent carboxyl methyltransferase activity was detected in the anti-Flag Flag-Arm1 expressing extracts, and this activity was not present in the immunoprecipitates from control extracts
